Laboratory results from patent US20100260668A1 (published 2010).

How the values were obtained:
[1] = target: T1, DLL4 ECD/His tag (R&D 1506-D4-050) (UniProt Q9NR61 27-529); experiment: direct bind ELISA, DLL4 on plate; DLL4 VD C-term.; HC Short, LC Long
T1 construct: extracellular domain; Bought antigen coated on the ELISA plate; not shown: His tag

[2] = target: T1, DLL4 ECD/His tag (R&D 1506-D4-050); experiment: direct bind ELISA, DLL4 on plate; DLL4 VD C-term.; HC Long, LC Short
[3] = target: recombinant human VEGF165 (human, UniProt P15692-4 27-191); experiment: cell-based or functional assay
recombinant human VEGF165, sequence (P15692 other isoform, or with tags, fused parts or gaps limits assumed): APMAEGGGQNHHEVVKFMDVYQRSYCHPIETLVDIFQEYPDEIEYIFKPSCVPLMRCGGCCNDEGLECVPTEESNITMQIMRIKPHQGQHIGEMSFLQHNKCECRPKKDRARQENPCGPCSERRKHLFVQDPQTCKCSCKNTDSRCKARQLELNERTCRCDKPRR

[4] = target: human DLL4 extracellular domain (human, UniProt Q9NR61 27-529); experiment: cell-based or functional assay

| Binder | EC50 [1] [nM] | EC50 [2] [nM] | other results |
| --- | --- | --- | --- |
| DVD486 (bispecific antibody, human IgG1, kappa, DVD-Ig; outer AB071 (VEGF), inner AB015 (DLL4); HC short, LC long linker; also called DVD486H; DVD486L) heavy: not shown light: DIQMTQSPSSLSASVGDRVTITCRASQVIRRSLAWYQQKPGKAPKLLIYAASNLASGVPSRFSGSGSGTDFTLTISSLQPEDFATYYCQQSNTSPLTFGQGTKVEIKRTVAAPSVFIFPPDIQMTQSPSSLSASVGDRVTITCRASQDVSTAVAWYQQKPGKAPKLLIYSASFLYSGVPSRFSGSGSGTDFTLTISSLQPEDFATTYYCQQSYTGTVTFGQGTKVEIKRTVAAPSVFIFPPSDEQLKSGTASVVCLLNNFYPREAKVQWKVDNALQSGNSQESVTEQDSKDSTYSLSSTLTLSKADYEKHKVYACEVTHQGLSSPVTKSFNRGEC | 0.59 | – | – |
| DVD464 (bispecific antibody, human IgG1, kappa, DVD-Ig; outer AB071 (VEGF), inner AB069 (DLL4); HC short, LC long linker; also called DVD464H; DVD464L) heavy: not shown light: DIQMTQSPSSLSASVGDRVTITCRASQVIRRSLAWYQQKPGKAPKLLIYAASNLASGVPSRFSGSGSGTDFTLTISSLQPEDFATYYCQQSNTSPLTFGQGTKVEIKRTVAAPSVFIFPPDIVMTQSPDSLAVSLGERATISCRASESVDNYGISFMKWFQQKPGQPPKLLIYAASNQGSGVPDRFSGSGSGTDFTLTISSLQAEDVAVYYCQQSKEVPWTFGGGTKVEIKRTVAAPSVFIFPPSDEQLKSGTASVVCLLNNFYPREAKVQWKVDNALQSGNSQESVTEQDSKDSTYSLSSTLTLSKADYEKHKVYACEVTHQGLSSPVTKSFNRGEC | 0.8 | – | – |
| DVD458 (bispecific antibody, human IgG1, kappa, L234A L235A, DVD-Ig; outer AB071 (VEGF), inner AB069 (DLL4); HC long, LC short linker; also called DVD458H; DVD458L) heavy: not shown light: DIQMTQSPSSLSASVGDRVTITCRASQVIRRSLAWYQQKPGKAPKLLIYAASNLASGVPSRFSGSGSGTDFTLTISSLQPEDFATYYCQQSNTSPLTFGQGTKVEIKRTVAAPDIVMTQSPDSLAVSLGERATISCRASESVDNYGISFMKWFQQKPGQPPKLLIYAASNQGSGVPDRFSGSGSGTDFTLTISSLQAEDVAVYYCQQSKEVPWTFGGGTKVEIKRTVAAPSVFIFPPSDEQLKSGTASVVCLLNNFYPREAKVQWKVDNALQSGNSQESVTEQDSKDSTYSLSSTLTLSKADYEKHKVYACEVTHQGLSSPVTKSFNRGEC | – | 1.54 | – |
| DVD534 (bispecific antibody, human IgG1, kappa, lambda, L234A L235A, DVD-Ig; outer AB071 (VEGF), inner AB073 (DLL4); HC short, LC long linker; also called DVD534H; DVD534L) heavy: not shown light: DIQMTQSPSSLSASVGDRVTITCRASQVIRRSLAWYQQKPGKAPKLLIYAASNLASGVPSRFSGSGSGTDFTLTISSLQPEDFATYYCQQSNTSPLTFGQGTKVEIKRTVAAPSVFIFPPQAVVTQESALTTSPGETVTLTCRSSTGAVTTSNYANWVQEKPDHLFTGLIGGTNNRAPGVPARFSGSLIGDKAALTITGAQTEDEAIYFCALWYSNHWVFGGGTKLTVLGQPKAAPSVTLFPPSSEELQANKATLVCLISDFYPGAVTVAWKADSSPVKAGVETTTPSKQSNNKYAASSYLSLTPEQWKSHRSYSCQVTHEGSTVEKTVAPTECS | 0.47 | – | – |
| DVD047 (bispecific antibody, human IgG1, kappa) heavy: not shown light: DIQMTQSPSSLSASVGDRVTITCSASQDISNYLNWYQQKPGKAPKVLIYFTSSLHSGVPSRFSGSGSGTDFTLTISSLQPEDFATYYCQQYSTVPWTFGQGTKVEIKRTVAAPDVVMTQSPLSLPVTPGEPASISCRSSQSLLHSNGFNYVDWYLQKPGQSPHLLIYFGSYRASGVPDRFSGSGSGTDFTLKISRVEAEDVGVYYCMQALQTPPWTFGQGTKVEIRRTVAAPSVFIFPPSDEQLKSGTASVVCLLNNFYPREAKVQWKVDNALQSGNSQESVTEQDSKDSTYSLSSTLTLSKADYEKHKVYACEVTHQGLSSPVTKSFNRGEC | – | – | % inhibition of HUVEC proliferation at 0.67 nM [3]: -5%; % inhibition of HUVEC proliferation at 6.7 nM [3]: 31%; % inhibition of HUVEC proliferation at 67 nM [3]: 65% |
| DVD500 (bispecific antibody, human IgG1, kappa, DVD-Ig; HC long, LC short linker; also called DVD500H; DVD500L) heavy: not shown light: DIQMTQSPSSLSASVGDRVTITCSASQDISNYLNWYQQKPGKAPKVLIYFTSSLHSGVPSRFSGSGSGTDFTLTISSLQPEDFATYYCQQYSTVPWTFGQGTKVEIKRTVAAPDIQMTQSSSYLSVSLGGRVTITCKASDHINNWLAWYQQKPGNAPRLLISGATSLETGVPSRFSGSGSGKDYTLSITSLQTEDVATYYCQQYWSIPLTFGAGTKLELKRTVAAPSVFIFPPSDEQLKSGTASVVCLLNNFYPREAKVQWKVDNALQSGNSQESVTEQDSKDSTYSLSSTLTLSKADYEKHKVYACEVTHQGLSSPVTKSFNRGEC | – | 0.57 | – |
| DVD504 (bispecific antibody, human IgG1, kappa, DVD-Ig; outer AB071 (VEGF), inner AB072 (DLL4); HC long, LC short linker; also called DVD504H; DVD504L) heavy: not shown light: DIQMTQSPSSLSASVGDRVTITCRASQVIRRSLAWYQQKPGKAPKLLIYAASNLASGVPSRFSGSGSGTDFTLTISSLQPEDFATYYCQQSNTSPLTFGQGTKVEIKRTVAAPDIQMTQSSSYLSVSLGGRVTITCKASDHINNWLAWYQQKPGNAPRLLISGATSLETGVPSRFSGSGSGKDYTLSITSLQTEDVATYYCQQYWSIPLTFGAGTKLELKRTVAAPSVFIFPPSDEQLKSGTASVVCLLNNFYPREAKVQWKVDNALQSGNSQESVTEQDSKDSTYSLSSTLTLSKADYEKHKVYACEVTHQGLSSPVTKSFNRGEC | – | 0.53 | – |
| DVD480 (bispecific antibody, human IgG1, kappa, DVD-Ig; outer AB071 (VEGF), inner AB015 (DLL4); HC long, LC short linker; also called DVD480H; DVD480L) heavy: not shown light: DIQMTQSPSSLSASVGDRVTITCRASQVIRRSLAWYQQKPGKAPKLLIYAASNLASGVPSRFSGSGSGTDFTLTISSLQPEDFATYYCQQSNTSPLTFGQGTKVEIKRTVAAPDIQMTQSPSSLSASVGDRVTITCRASQDVSTAVAWYQQKPGKAPKLLIYSASFLYSGVPSRFSGSGSGTDFTLTISSLQPEDFATTYYCQQSYTGTVTFGQGTKVEIKRTVAAPSVFIFPPSDEQLKSGTASVVCLLNNFYPREAKVQWKVDNALQSGNSQESVTEQDSKDSTYSLSSTLTLSKADYEKHKVYACEVTHQGLSSPVTKSFNRGEC | – | 0.6 | – |
| DVD506 (bispecific antibody, human IgG1, kappa, DVD-Ig; HC short, LC long linker; also called DVD506H; DVD506L) heavy: not shown light: DIQMTQSPSSLSASVGDRVTITCSASQDISNYLNWYQQKPGKAPKVLIYFTSSLHSGVPSRFSGSGSGTDFTLTISSLQPEDFATYYCQQYSTVPWTFGQGTKVEIKRTVAAPSVFIFPPDIQMTQSSSYLSVSLGGRVTITCKASDHINNWLAWYQQKPGNAPRLLISGATSLETGVPSRFSGSGSGKDYTLSITSLQTEDVATYYCQQYWSIPLTFGAGTKLELKRTVAAPSVFIFPPSDEQLKSGTASVVCLLNNFYPREAKVQWKVDNALQSGNSQESVTEQDSKDSTYSLSSTLTLSKADYEKHKVYACEVTHQGLSSPVTKSFNRGEC | 0.32 | – | – |
| AB015 (antibody, human IgG1, kappa) heavy: not shown light: DIQMTQSPSSLSASVGDRVTITCRASQDVSTAVAWYQQKPGKAPKLLIYSASFLYSGVPSRFSGSGSGTDFTLTISSLQPEDFATTYYCQQSYTGTVTFGQGTKVEIKRTVAAPSVFIFPPSDEQLKSGTASVVCLLNNFYPREAKVQWKVDNALQSGNSQESVTEQDSKDSTYSLSSTLTLSKADYEKHKVYACEVTHQGLSSPVTKSFNRGEC | – | – | Soluble Flt1 Assay, % of Neutralization @ 9.2 nM Ab [4]: 75.2%; Soluble Flt1 Assay, % of Neutralization @ 27.7 nM Ab [4]: 78.7%; Soluble Flt1 Assay, % of Neutralization @ 83.3 nM Ab [4]: 86.6% |
| DVD510 (bispecific antibody, human IgG1, kappa, DVD-Ig; outer AB071 (VEGF), inner AB072 (DLL4); HC short, LC long linker; also called DVD510H; DVD510L) heavy: not shown light: DIQMTQSPSSLSASVGDRVTITCRASQVIRRSLAWYQQKPGKAPKLLIYAASNLASGVPSRFSGSGSGTDFTLTISSLQPEDFATYYCQQSNTSPLTFGQGTKVEIKRTVAAPSVFIFPPDIQMTQSSSYLSVSLGGRVTITCKASDHINNWLAWYQQKPGNAPRLLISGATSLETGVPSRFSGSGSGKDYTLSITSLQTEDVATYYCQQYWSIPLTFGAGTKLELKRTVAAPSVFIFPPSDEQLKSGTASVVCLLNNFYPREAKVQWKVDNALQSGNSQESVTEQDSKDSTYSLSSTLTLSKADYEKHKVYACEVTHQGLSSPVTKSFNRGEC | 0.42 | – | – |
| DVD530 (bispecific antibody, human IgG1, kappa, lambda, L234A L235A, DVD-Ig; HC short, LC long linker; also called DVD530H; DVD530L) heavy: not shown light: DIQMTQSPSSLSASVGDRVTITCSASQDISNYLNWYQQKPGKAPKVLIYFTSSLHSGVPSRFSGSGSGTDFTLTISSLQPEDFATYYCQQYSTVPWTFGQGTKVEIKRTVAAPSVFIFPPQAVVTQESALTTSPGETVTLTCRSSTGAVTTSNYANWVQEKPDHLFTGLIGGTNNRAPGVPARFSGSLIGDKAALTITGAQTEDEAIYFCALWYSNHWVFGGGTKLTVLGQPKAAPSVTLFPPSSEELQANKATLVCLISDFYPGAVTVAWKADSSPVKAGVETTTPSKQSNNKYAASSYLSLTPEQWKSHRSYSCQVTHEGSTVEKTVAPTECS | 0.22 | – | – |
| DVD528 (bispecific antibody, human IgG1, lambda, DVD-Ig; outer AB071 (VEGF), inner AB073 (DLL4); HC long, LC short linker; also called DVD528H; DVD528L) heavy: not shown light: DIQMTQSPSSLSASVGDRVTITCRASQVIRRSLAWYQQKPGKAPKLLIYAASNLASGVPSRFSGSGSGTDFTLTISSLQPEDFATYYCQQSNTSPLTFGQGTKVEIKRTVAAPQAVVTQESALTTSPGETVTLTCRSSTGAVTTSNYANWVQEKPDHLFTGLIGGTNNRAPGVPARFSGSLIGDKAALTITGAQTEDEAIYFCALWYSNHWVFGGGTKLTVLGQPKAAPSVTLFPPSSEELQANKATLVCLISDFYPGAVTVAWKADSSPVKAGVETTTPSKQSNNKYAASSYLSLTPEQWKSHRSYSCQVTHEGSTVEKTVAPTECS | – | 0.81 | – |
| DVD524 (bispecific antibody, human IgG1, lambda, DVD-Ig; HC long, LC short linker; also called DVD524H; DVD524L) heavy: not shown light: DIQMTQSPSSLSASVGDRVTITCSASQDISNYLNWYQQKPGKAPKVLIYFTSSLHSGVPSRFSGSGSGTDFTLTISSLQPEDFATYYCQQYSTVPWTFGQGTKVEIKRTVAAPQAVVTQESALTTSPGETVTLTCRSSTGAVTTSNYANWVQEKPDHLFTGLIGGTNNRAPGVPARFSGSLIGDKAALTITGAQTEDEAIYFCALWYSNHWVFGGGTKLTVLGQPKAAPSVTLFPPSSEELQANKATLVCLISDFYPGAVTVAWKADSSPVKAGVETTTPSKQSNNKYAASSYLSLTPEQWKSHRSYSCQVTHEGSTVEKTVAPTECS | – | 0.22 | – |
| DVD482 (bispecific antibody, human IgG1, kappa, DVD-Ig; HC short, LC long linker; also called DVD482H; DVD482L) heavy: not shown light: DIQMTQSPSSLSASVGDRVTITCSASQDISNYLNWYQQKPGKAPKVLIYFTSSLHSGVPSRFSGSGSGTDFTLTISSLQPEDFATYYCQQYSTVPWTFGQGTKVEIKRTVAAPSVFIFPPDIQMTQSPSSLSASVGDRVTITCRASQDVSTAVAWYQQKPGKAPKLLIYSASFLYSGVPSRFSGSGSGTDFTLTISSLQPEDFATTYYCQQSYTGTVTFGQGTKVEIKRTVAAPSVFIFPPSDEQLKSGTASVVCLLNNFYPREAKVQWKVDNALQSGNSQESVTEQDSKDSTYSLSSTLTLSKADYEKHKVYACEVTHQGLSSPVTKSFNRGEC | 0.36 | – | – |
